Assay results as given in publication PMC3323041 (The Journal of Biological Chemistry, 2012).

B1: Yeast Fis1(1-129), lacking the transmembrane segment (domain or fragment, S. cerevisiae, UniProt P40515 1-129, looked up)
chain: MTKVDFWPTLKDAYEPLYPQQLEILRQQVVSEGGPTATIQSRFNYAWGLIKSTDVNDERLGVKILTDIYKEAESRRRECLYYLTIGCYKLGEYSMAKRYVDTLFEHERNNKQVGALKSMVEDKIQKETL
B2: Mdv1(94-314) K215A/K216A, containing the NTE and coiled coil (domain or fragment, S. cerevisiae, UniProt P47025 94-314, looked up)
chain: DNKTCFRMLTYISDDLLNEIPTKEGLKSDADGKLLTEGGENENLRKNASKKETSLFQGFKSYLPIAELAIENTERLNYDTNGTSGTVGAKDVMSKTNERDEIHTELPNFQDSFLIPPGVETAAISSSYSPSALKSFSQTLVNSLEFLNIQKNSTLSEIRDIEVEVENLRQKKEKLLGKIANIEQNQLLLEDNLKQIDDRLDFLEEYGLEVIEANSDENAED

Experiments:
[1] = biological target: B2; assay: crystal structure
crystal structure = biological target: the molecule itself; assay: crystal structure

Row | binding result [1] | Binder | binding result (crystal structure)
1 | binds | B1 | –
2 | – | B2 | binds
